Values quoted from earlier work, collected in PMC12193198.

Molecular target: transferrin receptor (TfR) (Homo sapiens) (UniProt P02786)
Sequence (P02786 89-760): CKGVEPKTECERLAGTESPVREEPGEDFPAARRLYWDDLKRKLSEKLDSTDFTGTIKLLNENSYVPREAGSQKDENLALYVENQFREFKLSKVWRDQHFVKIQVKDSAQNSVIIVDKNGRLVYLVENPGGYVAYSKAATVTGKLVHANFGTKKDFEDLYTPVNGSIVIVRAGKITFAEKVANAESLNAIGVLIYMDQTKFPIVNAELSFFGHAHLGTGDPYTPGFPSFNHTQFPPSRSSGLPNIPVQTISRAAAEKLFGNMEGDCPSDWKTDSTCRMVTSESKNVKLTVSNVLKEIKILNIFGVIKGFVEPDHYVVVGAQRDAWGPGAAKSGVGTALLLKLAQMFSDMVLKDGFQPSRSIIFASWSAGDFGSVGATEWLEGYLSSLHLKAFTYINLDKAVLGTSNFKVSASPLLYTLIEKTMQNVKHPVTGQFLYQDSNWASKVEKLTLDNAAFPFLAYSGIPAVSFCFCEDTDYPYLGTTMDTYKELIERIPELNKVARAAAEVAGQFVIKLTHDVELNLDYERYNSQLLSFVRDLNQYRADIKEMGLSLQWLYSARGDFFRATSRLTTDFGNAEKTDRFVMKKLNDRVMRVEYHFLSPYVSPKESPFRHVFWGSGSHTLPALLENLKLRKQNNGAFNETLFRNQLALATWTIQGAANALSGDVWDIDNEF

Kd: 10 nM
Substance: T7 peptide
